Assays:
[1] = target: 3xFLAG-TMEM24(76-260) (human) (UniProt O14523); experiment: native MS
[2] = target: TMEM24 SMP domain (residues 76 to 260) (human) (UniProt O14523); experiment: SEC

| Substance | stoichiometry N [1] | stoichiometry N [2] |
| --- | --- | --- |
| 3xFLAG-TMEM24(76-260) (from UniProt O14523 76-260) (domain or fragment) | 2 |  |
| TMEM24 SMP domain (residues 76 to 260) (from UniProt O14523 76-260) (domain or fragment) |  | 2 |
